Assay results taken from patent publication US20160115500A1 (University of California, published 2016).

T1: GAL4 activation domain fusion (ACT) to HAB1 (UniProt Q9CAJ0 23-511, limits assumed)
T1 construct: pACT-HAB1 fusion in yeast reporter strains; also called pACT-HAB1
T1 sequence (looked up): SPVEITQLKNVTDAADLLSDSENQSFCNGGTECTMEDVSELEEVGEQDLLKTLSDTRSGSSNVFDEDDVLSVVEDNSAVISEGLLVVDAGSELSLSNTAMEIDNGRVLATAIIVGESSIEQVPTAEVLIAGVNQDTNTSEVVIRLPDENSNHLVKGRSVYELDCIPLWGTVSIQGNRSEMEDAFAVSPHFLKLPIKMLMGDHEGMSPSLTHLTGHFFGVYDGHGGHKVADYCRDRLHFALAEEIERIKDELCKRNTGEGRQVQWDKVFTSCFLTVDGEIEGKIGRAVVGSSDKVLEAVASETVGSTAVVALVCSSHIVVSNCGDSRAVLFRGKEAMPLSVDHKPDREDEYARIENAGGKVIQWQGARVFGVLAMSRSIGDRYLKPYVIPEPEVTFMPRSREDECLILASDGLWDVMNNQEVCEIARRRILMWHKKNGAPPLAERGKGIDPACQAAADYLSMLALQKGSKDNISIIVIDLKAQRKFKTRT


Experiments:
[1] = molecular target: T1, GAL4 activation domain fusion (ACT) to …; assay: yeast two-hybrid, X-gal; lowest benzothiadiazole concentration giving signal
[2] = molecular target: T1, GAL4 activation domain fusion (ACT) to …; assay: yeast two-hybrid, X-gal; lowest dichlobenil concentration giving signal
[3] = molecular target: T1, GAL4 activation domain fusion (ACT) to …; assay: yeast two-hybrid, X-gal; lowest fludioxonil concentration giving signal
[4] = molecular target: T1, GAL4 activation domain fusion (ACT) to …; assay: yeast two-hybrid, X-gal; lowest mandipropamid concentration giving signal

| Binder | Threshold [1] [µM] | Threshold [3] [µM] | other results |
| --- | --- | --- | --- |
| PYR1^K59R,A89C (receptor, not shown: small tags and cut ends, pBD-PYR1 fusion in yeast) MPSELTPEERSELKNSIAEFHTYQLDPGSCSSLHAQRIHAPPELVWSIVRRFDKPQTYRHFIKSCSVEQNFEMRVGCTRDVIVISGLPCNTSTERLDILDDERRVTGFSIIGGEHRLTNYKSVTTVHRFEKENRIWTVVLESYVVDMPEGNSEDDTRMFADTVVKLNLQKLATVAEAMARNSGDGSGSQVT | 100 | – | – |
| PYR1^K59R,A160G,V164K (receptor, pBD-PYR1 fusion in yeast) MPSELTPEERSELKNSIAEFHTYQLDPGSCSSLHAQRIHAPPELVWSIVRRFDKPQTYRHFIKSCSVEQNFEMRVGCTRDVIVISGLPANTSTERLDILDDERRVTGFSIIGGEHRLTNYKSVTTVHRFEKENRIWTVVLESYVVDMPEGNSEDDTRMFGDTVKKLNLQKLATVAEAMARNSGDGSGSQVT | 5 | – | – |
| PYR1^K59R,A89C,L117C (receptor, pBD-PYR1 fusion in yeast) MPSELTPEERSELKNSIAEFHTYQLDPGSCSSLHAQRIHAPPELVWSIVRRFDKPQTYRHFIKSCSVEQNFEMRVGCTRDVIVISGLPCNTSTERLDILDDERRVTGFSIIGGEHRCTNYKSVTTVHRFEKENRIWTVVLESYVVDMPEGNSEDDTRMFADTVVKLNLQKLATVAEAMARNSGDGSGSQVT | 25 | – | – |
| PYR1^K59R,A160C (receptor, not shown: small tags and cut ends, pBD-PYR1 fusion in yeast) MPSELTPEERSELKNSIAEFHTYQLDPGSCSSLHAQRIHAPPELVWSIVRRFDKPQTYRHFIKSCSVEQNFEMRVGCTRDVIVISGLPANTSTERLDILDDERRVTGFSIIGGEHRLTNYKSVTTVHRFEKENRIWTVVLESYVVDMPEGNSEDDTRMFCDTVVKLNLQKLATVAEAMARNSGDGSGSQVT | – | 100 | Threshold [2]: 100 µM |
| PYR1^K59R,E94D (receptor, not shown: small tags and cut ends, pBD-PYR1 fusion in yeast) MPSELTPEERSELKNSIAEFHTYQLDPGSCSSLHAQRIHAPPELVWSIVRRFDKPQTYRHFIKSCSVEQNFEMRVGCTRDVIVISGLPANTSTDRLDILDDERRVTGFSIIGGEHRLTNYKSVTTVHRFEKENRIWTVVLESYVVDMPEGNSEDDTRMFADTVVKLNLQKLATVAEAMARNSGDGSGSQVT | – | 100 | Threshold [2]: 100 µM |
| PYR1^K59R,A160G,L117C (receptor, pBD-PYR1 fusion in yeast) MPSELTPEERSELKNSIAEFHTYQLDPGSCSSLHAQRIHAPPELVWSIVRRFDKPQTYRHFIKSCSVEQNFEMRVGCTRDVIVISGLPANTSTERLDILDDERRVTGFSIIGGEHRCTNYKSVTTVHRFEKENRIWTVVLESYVVDMPEGNSEDDTRMFGDTVVKLNLQKLATVAEAMARNSGDGSGSQVT | 25 | – | – |
| PYR1^K59R,A89C,E141Y (receptor, not shown: small tags and cut ends, pBD-PYR1 fusion in yeast) MPSELTPEERSELKNSIAEFHTYQLDPGSCSSLHAQRIHAPPELVWSIVRRFDKPQTYRHFIKSCSVEQNFEMRVGCTRDVIVISGLPCNTSTERLDILDDERRVTGFSIIGGEHRLTNYKSVTTVHRFEKENRIWTVVLYSYVVDMPEGNSEDDTRMFADTVVKLNLQKLATVAEAMARNSGDGSGSQVT | 0.2 | – | – |
| PYR1^K59R,A89C,V164K (receptor, not shown: small tags and cut ends, pBD-PYR1 fusion in yeast) MPSELTPEERSELKNSIAEFHTYQLDPGSCSSLHAQRIHAPPELVWSIVRRFDKPQTYRHFIKSCSVEQNFEMRVGCTRDVIVISGLPCNTSTERLDILDDERRVTGFSIIGGEHRLTNYKSVTTVHRFEKENRIWTVVLESYVVDMPEGNSEDDTRMFADTVKKLNLQKLATVAEAMARNSGDGSGSQVT | 0.2 | – | – |
| PYR1^K59R,A89C,A160G (receptor, not shown: small tags and cut ends, pBD-PYR1 fusion in yeast) MPSELTPEERSELKNSIAEFHTYQLDPGSCSSLHAQRIHAPPELVWSIVRRFDKPQTYRHFIKSCSVEQNFEMRVGCTRDVIVISGLPCNTSTERLDILDDERRVTGFSIIGGEHRLTNYKSVTTVHRFEKENRIWTVVLESYVVDMPEGNSEDDTRMFGDTVVKLNLQKLATVAEAMARNSGDGSGSQVT | 5 | – | – |
| PYR1^K59R,A160G (receptor, not shown: small tags and cut ends, pBD-PYR1 fusion in yeast) MPSELTPEERSELKNSIAEFHTYQLDPGSCSSLHAQRIHAPPELVWSIVRRFDKPQTYRHFIKSCSVEQNFEMRVGCTRDVIVISGLPANTSTERLDILDDERRVTGFSIIGGEHRLTNYKSVTTVHRFEKENRIWTVVLESYVVDMPEGNSEDDTRMFGDTVVKLNLQKLATVAEAMARNSGDGSGSQVT | 100 | – | – |

More lines, main results first:

| Threshold [1] [µM] | Threshold [3] [µM] | Binder | other results |
| --- | --- | --- | --- |
| 5 | – | PYR1^K59R,E141Y,A160G (receptor, pBD-PYR1 fusion in yeast) MPSELTPEERSELKNSIAEFHTYQLDPGSCSSLHAQRIHAPPELVWSIVRRFDKPQTYRHFIKSCSVEQNFEMRVGCTRDVIVISGLPANTSTERLDILDDERRVTGFSIIGGEHRLTNYKSVTTVHRFEKENRIWTVVLYSYVVDMPEGNSEDDTRMFGDTVVKLNLQKLATVAEAMARNSGDGSGSQVT | – |
| 100 | – | PYR1^K59R,E141K (receptor, not shown: small tags and cut ends, pBD-PYR1 fusion in yeast) MPSELTPEERSELKNSIAEFHTYQLDPGSCSSLHAQRIHAPPELVWSIVRRFDKPQTYRHFIKSCSVEQNFEMRVGCTRDVIVISGLPANTSTERLDILDDERRVTGFSIIGGEHRLTNYKSVTTVHRFEKENRIWTVVLKSYVVDMPEGNSEDDTRMFADTVVKLNLQKLATVAEAMARNSGDGSGSQVT | – |
| – | 100 | PYR1^K59R,N167C (receptor, not shown: small tags and cut ends, pBD-PYR1 fusion in yeast) MPSELTPEERSELKNSIAEFHTYQLDPGSCSSLHAQRIHAPPELVWSIVRRFDKPQTYRHFIKSCSVEQNFEMRVGCTRDVIVISGLPANTSTERLDILDDERRVTGFSIIGGEHRLTNYKSVTTVHRFEKENRIWTVVLESYVVDMPEGNSEDDTRMFADTVVKLCLQKLATVAEAMARNSGDGSGSQVT | Threshold [2]: 100 µM |
| – | 100 | PYR1^K59R,Y120F (receptor, not shown: small tags and cut ends, pBD-PYR1 fusion in yeast) MPSELTPEERSELKNSIAEFHTYQLDPGSCSSLHAQRIHAPPELVWSIVRRFDKPQTYRHFIKSCSVEQNFEMRVGCTRDVIVISGLPANTSTERLDILDDERRVTGFSIIGGEHRLTNFKSVTTVHRFEKENRIWTVVLESYVVDMPEGNSEDDTRMFADTVVKLNLQKLATVAEAMARNSGDGSGSQVT | – |
| – | 100 | PYR1^K59R,F108L (receptor, pBD-PYR1 fusion in yeast) MPSELTPEERSELKNSIAEFHTYQLDPGSCSSLHAQRIHAPPELVWSIVRRFDKPQTYRHFIKSCSVEQNFEMRVGCTRDVIVISGLPANTSTERLDILDDERRVTGLSIIGGEHRLTNYKSVTTVHRFEKENRIWTVVLESYVVDMPEGNSEDDTRMFADTVVKLNLQKLATVAEAMARNSGDGSGSQVT | Threshold [4]: 100 µM |
| – | 100 | PYR1^K59R,Y120G (receptor, not shown: small tags and cut ends, pBD-PYR1 fusion in yeast) MPSELTPEERSELKNSIAEFHTYQLDPGSCSSLHAQRIHAPPELVWSIVRRFDKPQTYRHFIKSCSVEQNFEMRVGCTRDVIVISGLPANTSTERLDILDDERRVTGFSIIGGEHRLTNGKSVTTVHRFEKENRIWTVVLESYVVDMPEGNSEDDTRMFADTVVKLNLQKLATVAEAMARNSGDGSGSQVT | – |
| – | 100 | PYR1^K59R,L87P (receptor, not shown: small tags and cut ends, pBD-PYR1 fusion in yeast) MPSELTPEERSELKNSIAEFHTYQLDPGSCSSLHAQRIHAPPELVWSIVRRFDKPQTYRHFIKSCSVEQNFEMRVGCTRDVIVISGPPANTSTERLDILDDERRVTGFSIIGGEHRLTNYKSVTTVHRFEKENRIWTVVLESYVVDMPEGNSEDDTRMFADTVVKLNLQKLATVAEAMARNSGDGSGSQVT | Threshold [2]: 100 µM |
| – | 100 | PYR1^K59R,Y120A (receptor, not shown: small tags and cut ends, pBD-PYR1 fusion in yeast) MPSELTPEERSELKNSIAEFHTYQLDPGSCSSLHAQRIHAPPELVWSIVRRFDKPQTYRHFIKSCSVEQNFEMRVGCTRDVIVISGLPANTSTERLDILDDERRVTGFSIIGGEHRLTNAKSVTTVHRFEKENRIWTVVLESYVVDMPEGNSEDDTRMFADTVVKLNLQKLATVAEAMARNSGDGSGSQVT | – |
| – | 10 | PYR1^K59R,Y120A,N167C (receptor, not shown: small tags and cut ends, pBD-PYR1 fusion in yeast) MPSELTPEERSELKNSIAEFHTYQLDPGSCSSLHAQRIHAPPELVWSIVRRFDKPQTYRHFIKSCSVEQNFEMRVGCTRDVIVISGLPANTSTERLDILDDERRVTGFSIIGGEHRLTNAKSVTTVHRFEKENRIWTVVLESYVVDMPEGNSEDDTRMFADTVVKLCLQKLATVAEAMARNSGDGSGSQVT | – |
| – | 10 | PYR1^K59R,Y120A,E141Y (receptor, not shown: small tags and cut ends, pBD-PYR1 fusion in yeast) MPSELTPEERSELKNSIAEFHTYQLDPGSCSSLHAQRIHAPPELVWSIVRRFDKPQTYRHFIKSCSVEQNFEMRVGCTRDVIVISGLPANTSTERLDILDDERRVTGFSIIGGEHRLTNAKSVTTVHRFEKENRIWTVVLYSYVVDMPEGNSEDDTRMFADTVVKLNLQKLATVAEAMARNSGDGSGSQVT | – |
| – | 100 | PYR1^K59R,Y120M (receptor, not shown: small tags and cut ends, pBD-PYR1 fusion in yeast) MPSELTPEERSELKNSIAEFHTYQLDPGSCSSLHAQRIHAPPELVWSIVRRFDKPQTYRHFIKSCSVEQNFEMRVGCTRDVIVISGLPANTSTERLDILDDERRVTGFSIIGGEHRLTNMKSVTTVHRFEKENRIWTVVLESYVVDMPEGNSEDDTRMFADTVVKLNLQKLATVAEAMARNSGDGSGSQVT | – |
| 100 | – | PYR1^K59R,L117C (receptor, not shown: small tags and cut ends, pBD-PYR1 fusion in yeast) MPSELTPEERSELKNSIAEFHTYQLDPGSCSSLHAQRIHAPPELVWSIVRRFDKPQTYRHFIKSCSVEQNFEMRVGCTRDVIVISGLPANTSTERLDILDDERRVTGFSIIGGEHRCTNYKSVTTVHRFEKENRIWTVVLESYVVDMPEGNSEDDTRMFADTVVKLNLQKLATVAEAMARNSGDGSGSQVT | – |
